Laboratory results from the MegaScale stability set (Tsuboyama et al. 2023).

B1: EEHEE_rd3_1049 (parent)
chain: TTVKLGDIKVTFDNPEKAKKYAQKLAKIYQLTVHVHGDTIHVK

Variants of: B1
Experiment: folding stability dG (cDNA display proteolysis); higher = more stable
Conditions: PBS, room temperature

Variant	folding stability dG [kcal/mol]
TTVKLGDIKVTFDNPEKAKKYAQKLAKIYQLTVHVHGDTIQVK [H41Q]	1.55
TTVKLGDIKVTFDNPEKAKKYAQKLAKIYQLTVHVHGDTICVK [H41C]	2.41
TTVKLGDIKVTFDNPEKAKKYAQKLAKIYQLTVHVHGDTIWVK [H41W]	2.31
TTVKLGDIKVTFDNPEKAKKYAQKLAKIYQLTVHVHGDTISVK [H41S]	1.65
TTVKLGDIKVTFDNPEKAKKYAQKLAKIYQLTVHVHGDTINVK [H41N]	1.32
TTVKLGDIKVTFDNPEKAKKYAQKLAKIYQLTVHVHGDTIAVK [H41A]	1.26
TTVKLGDIKVTFDNPEKAKKYAQKLAKIYQLTVHVHGDTIKVK [H41K]	1.1
TTVKLGDIKVTFDNPEKAKKYAQKLAKIYQLTVHVHGDTITVK [H41T]	2.23
TTVKLGDIKVTFDNPEKAKKYAQKLAKIYQLTVHVHGDTIPVK [H41P]	0.283
TTVKLGDIKVTFDNPEKAKKYAQKLAKIYQLTVHVHGDTIYVK [H41Y]	2.6
TTVKLGDIKVTFDNPEKAKKYAQKLAKIYQLTVHVHGDTIGVK [H41G]	0.476
TTVKLGDIKVTFDNPEKAKKYAQKLAKIYQLTVHVHGDTIFVK [H41F]	2.37
TTVKLGDIKVTFDNPEKAKKYAQKLAKIYQLTVHVHGDTIMVK [H41M]	1.86
TTVKLGDIKVTFDNPEKAKKYAQKLAKIYQLTVHVHGDTIDVK [H41D]	1.49
TTVKLGDIKVTFDNPEKAKKYAQKLAKIYQLTVHVHGDTIIVK [H41I]	2.58
TTVKLGDIKVTFDNPEKAKKYAQKLAKIYQLTVHVHGDTIEVK [H41E]	2.44
TTVKLGDIKVTFDNPEKAKKYAQKLAKIYQLTVHVHGDTIVVK [H41V]	2.44
TTVKLGDIKVTFDNPEKAKKYAQKLAKIYQLTVHVHGDTIRVK [H41R]	1.25
TTVKLGDIKVTFDNPEKAKKYAQKLAKIYQLTVHVHGDTILVK [H41L]	2.17
TTVKLGDIKVTFDNPEKAKKYAQKLAKIYQLTVHVHGKTIHVK [D38K]	1.85
TTVKLGDIKVTFDNPEKAKKYAQKLAKIYQLTVHVHGRTIHVK [D38R]	1.86
TTVKLGDIKVTFDNPEKAKKYAQKLAKIYQLTVHVHGSTIHVK [D38S]	2.16
TTVKLGDIKVTFDNPEKAKKYAQKLAKIYQLTVHVHGETIHVK [D38E]	1.47
TTVKLGDIKVTFDNPEKAKKYAQKLAKIYQLTVHVHGATIHVK [D38A]	1.94

Variant	folding stability dG [kcal/mol]
TTVKLGDIKVTFDNPEKAKKYAQKLAKIYQLTVHVHGMTIHVK [D38M]	1.97
TTVKLGDIKVTFDNPEKAKKYAQKLAKIYQLTVHVHGHTIHVK [D38H]	1.95
TTVKLGDIKVTFDNPEKAKKYAQKLAKIYQLTVHVHGQTIHVK [D38Q]	1.85
TTVKLGDIKVTFDNPEKAKKYAQKLAKIYQLTVHVHGYTIHVK [D38Y]	1.47
TTVKLGDIKVTFDNPEKAKKYAQKLAKIYQLTVHVHGWTIHVK [D38W]	1.76
TTVKLGDIKVTFDNPEKAKKYAQKLAKIYQLTVHVHGLTIHVK [D38L]	1.83
TTVKLGDIKVTFDNPEKAKKYAQKLAKIYQLTVHVHGFTIHVK [D38F]	1.7
TTVKLGDIKVTFDNPEKAKKYAQKLAKIYQLTVHVHGTTIHVK [D38T]	2
TTVKLGDIKVTFDNPEKAKKYAQKLAKIYQLTVHVHGVTIHVK [D38V]	1.57
TTVKLGDIKVTFDNPEKAKKYAQKLAKIYQLTVHVHGITIHVK [D38I]	1.6
TTVKLGDIKVTFDNPEKAKKYAQKLAKIYQLTVHVHGNTIHVK [D38N]	2.47
TTVKLGDIKVTFDNPEKAKKYAQKLAKIYQLTVHVHGCTIHVK [D38C]	2.12
TTVKLGDIKVTFDNPEKAKKYAQKLAKIYQLTVHVHGGTIHVK [D38G]	1.6
TTVKLGDIKVTFDNPEKAKKYAQKLAKIYQLTVHVHGPTIHVK [D38P]	1.42
TTVKLGDIKVTFDNPEKAKKYAQKLAKIYQLTVHVTGDTIHVK [H36T]	2.07
TTVKLGDIKVTFDNPEKAKKYAQKLAKIYQLTVHVKGDTIHVK [H36K]	1.96
TTVKLGDIKVTFDNPEKAKKYAQKLAKIYQLTVHVNGDTIHVK [H36N]	2.04
TTVKLGDIKVTFDNPEKAKKYAQKLAKIYQLTVHVWGDTIHVK [H36W]	1.99
TTVKLGDIKVTFDNPEKAKKYAQKLAKIYQLTVHVDGDTIHVK [H36D]	2.58
TTVKLGDIKVTFDNPEKAKKYAQKLAKIYQLTVHVVGDTIHVK [H36V]	2.61
TTVKLGDIKVTFDNPEKAKKYAQKLAKIYQLTVHVCGDTIHVK [H36C]	3.31
TTVKLGDIKVTFDNPEKAKKYAQKLAKIYQLTVHVEGDTIHVK [H36E]	2.66
TTVKLGDIKVTFDNPEKAKKYAQKLAKIYQLTVHVMGDTIHVK [H36M]	2.46
TTVKLGDIKVTFDNPEKAKKYAQKLAKIYQLTVHVPGDTIHVK [H36P]	0.039

Variant	folding stability dG [kcal/mol]
TTVKLGDIKVTFDNPEKAKKYAQKLAKIYQLTVHVLGDTIHVK [H36L]	2.34
TTVKLGDIKVTFDNPEKAKKYAQKLAKIYQLTVHVYGDTIHVK [H36Y]	2.19
TTVKLGDIKVTFDNPEKAKKYAQKLAKIYQLTVHVRGDTIHVK [H36R]	1.96
TTVKLGDIKVTFDNPEKAKKYAQKLAKIYQLTVHVAGDTIHVK [H36A]	2.12
TTVKLGDIKVTFDNPEKAKKYAQKLAKIYQLTVHVIGDTIHVK [H36I]	2.73
TTVKLGDIKVTFDNPEKAKKYAQKLAKIYQLTVHVGGDTIHVK [H36G]	1.16
TTVKLGDIKVTFDNPEKAKKYAQKLAKIYQLTVHVFGDTIHVK [H36F]	2.17
TTVKLGDIKVTFDNPEKAKKYAQKLAKIYQLTVHVQGDTIHVK [H36Q]	2.34
TTVKLGDIKVTFDNPEKAKKYAQKLAKIYQLTVHVSGDTIHVK [H36S]	2.19
TTVKLGDIKVTFDNPEKAKKYAQKLAKIYQLTVHVHNDTIHVK [G37N]	1.3
TTVKLGDIKVTFDNPEKAKKYAQKLAKIYQLTVHVHEDTIHVK [G37E]	1.3
TTVKLGDIKVTFDNPEKAKKYAQKLAKIYQLTVHVHWDTIHVK [G37W]	1.25
TTVKLGDIKVTFDNPEKAKKYAQKLAKIYQLTVHVHVDTIHVK [G37V]	1.05
TTVKLGDIKVTFDNPEKAKKYAQKLAKIYQLTVHVHIDTIHVK [G37I]	1.04
TTVKLGDIKVTFDNPEKAKKYAQKLAKIYQLTVHVHADTIHVK [G37A]	1.28
TTVKLGDIKVTFDNPEKAKKYAQKLAKIYQLTVHVHMDTIHVK [G37M]	1.22
TTVKLGDIKVTFDNPEKAKKYAQKLAKIYQLTVHVHDDTIHVK [G37D]	1.22
TTVKLGDIKVTFDNPEKAKKYAQKLAKIYQLTVHVHTDTIHVK [G37T]	0.847
TTVKLGDIKVTFDNPEKAKKYAQKLAKIYQLTVHVHPDTIHVK [G37P]	0.698
TTVKLGDIKVTFDNPEKAKKYAQKLAKIYQLTVHVHSDTIHVK [G37S]	1
TTVKLGDIKVTFDNPEKAKKYAQKLAKIYQLTVHVHKDTIHVK [G37K]	1.24
TTVKLGDIKVTFDNPEKAKKYAQKLAKIYQLTVHVHYDTIHVK [G37Y]	1.24
TTVKLGDIKVTFDNPEKAKKYAQKLAKIYQLTVHVHHDTIHVK [G37H]	1.05
TTVKLGDIKVTFDNPEKAKKYAQKLAKIYQLTVHVHRDTIHVK [G37R]	1.13

Variant	folding stability dG [kcal/mol]
TTVKLGDIKVTFDNPEKAKKYAQKLAKIYQLTVHVHFDTIHVK [G37F]	1.38
TTVKLGDIKVTFDNPEKAKKYAQKLAKIYQLTVHVHLDTIHVK [G37L]	1.31
TTVKLGDIKVTFDNPEKAKKYAQKLAKIYQLTVHVHQDTIHVK [G37Q]	1.27
TTVKLGDIKVTFDNPEKAKKYAQKLAKIYQLTVHSHGDTIHVK [V35S]	1.17
TTVKLGDIKVTFDNPEKAKKYAQKLAKIYQLTVHYHGDTIHVK [V35Y]	2.14
TTVKLGDIKVTFDNPEKAKKYAQKLAKIYQLTVHTHGDTIHVK [V35T]	1.5
TTVKLGDIKVTFDNPEKAKKYAQKLAKIYQLTVHWHGDTIHVK [V35W]	1.99
TTVKLGDIKVTFDNPEKAKKYAQKLAKIYQLTVHVHGDTCHVK [I40C]	0.854
TTVKLGDIKVTFDNPEKAKKYAQKLAKIYQLTVHVHGDTDHVK [I40D]	0.287
TTVKLGDIKVTFDNPEKAKKYAQKLAKIYQLTVHVHGDTLHVK [I40L]	1.66
TTVKLGDIKVTFDNPEKAKKYAQKLAKIYQLTVHVHGDTEHVK [I40E]	0.224
TTVKLGDIKVTFDNPEKAKKYAQKLAKIYQLTVHVHGDTFHVK [I40F]	1.6
TTVKLGDIKVTFDNPEKAKKYAQKLAKIYQLTVHVHGDTYHVK [I40Y]	1.66
TTVKLGDIKVTFDNPEKAKKYAQKLAKIYQLTVHVHGDTVHVK [I40V]	1.3
TTVKLGDIKVTFDNPEKAKKYAQKLAKIYQLTVHVHGDTTHVK [I40T]	0.449
TTVKLGDIKVTFDNPEKAKKYAQKLAKIYQLTVHVHGDTQHVK [I40Q]	0.438
TTVKLGDIKVTFDNPEKAKKYAQKLAKIYQLTVHVHGDTGHVK [I40G]	0.535
TTVKLGDIKVTFDNPEKAKKYAQKLAKIYQLTVHVHGDTSHVK [I40S]	0.541
TTVKLGDIKVTFDNPEKAKKYAQKLAKIYQLTVHVHGDTNHVK [I40N]	0.239
TTVKLGDIKVTFDNPEKAKKYAQKLAKIYQLTVHVHGDTPHVK [I40P]	0.463
TTVKLGDIKVTFDNPEKAKKYAQKLAKIYQLTVHVHGDTMHVK [I40M]	1.16
TTVKLGDIKVTFDNPEKAKKYAQKLAKIYQLTVHVHGDTWHVK [I40W]	1.28
TTVKLGDIKVTFDNPEKAKKYAQKLAKIYQLTVHVHGDTAHVK [I40A]	0.282
TTVKLGDIKVTFDNPEKAKKYAQKLAKIYQLTVHVHGDTKHVK [I40K]	0.443

Variant	folding stability dG [kcal/mol]
TTVKLGDIKVTFDNPEKAKKYAQKLAKIYQLTVHVHGDTRHVK [I40R]	0.214
TTVKLGDIKVTFDNPEKAKKYAQKLAKIYQLTVHVHGDTHHVK [I40H]	0.576
TTVKLGDIKVTFDNPEKAKKYAQKLAKIYQLTVHVHGDYIHVK [T39Y]	1.71
TTVKLGDIKVTFDNPEKAKKYAQKLAKIYQLTVHVHGDFIHVK [T39F]	1.77
TTVKLGDIKVTFDNPEKAKKYAQKLAKIYQLTVHVHGDWIHVK [T39W]	1.55
TTVKLGDIKVTFDNPEKAKKYAQKLAKIYQLTVHVHGDGIHVK [T39G]	0.726
TTVKLGDIKVTFDNPEKAKKYAQKLAKIYQLTVHVHGDEIHVK [T39E]	1.82
TTVKLGDIKVTFDNPEKAKKYAQKLAKIYQLTVHVHGDAIHVK [T39A]	1.13
TTVKLGDIKVTFDNPEKAKKYAQKLAKIYQLTVHVHGDKIHVK [T39K]	0.943
TTVKLGDIKVTFDNPEKAKKYAQKLAKIYQLTVHVHGDIIHVK [T39I]	2.27
TTVKLGDIKVTFDNPEKAKKYAQKLAKIYQLTVHVHGDDIHVK [T39D]	0.923
TTVKLGDIKVTFDNPEKAKKYAQKLAKIYQLTVHVHGDSIHVK [T39S]	1.24
TTVKLGDIKVTFDNPEKAKKYAQKLAKIYQLTVHVHGDHIHVK [T39H]	1.58
TTVKLGDIKVTFDNPEKAKKYAQKLAKIYQLTVHVHGDQIHVK [T39Q]	1.36
TTVKLGDIKVTFDNPEKAKKYAQKLAKIYQLTVHVHGDRIHVK [T39R]	0.835
TTVKLGDIKVTFDNPEKAKKYAQKLAKIYQLTVHVHGDLIHVK [T39L]	1.81
TTVKLGDIKVTFDNPEKAKKYAQKLAKIYQLTVHVHGDCIHVK [T39C]	2.26
TTVKLGDIKVTFDNPEKAKKYAQKLAKIYQLTVHVHGDVIHVK [T39V]	2.23
TTVKLGDIKVTFDNPEKAKKYAQKLAKIYQLTVHVHGDMIHVK [T39M]	1.96
TTVKLGDIKVTFDNPEKAKKYAQKLAKIYQLTVHVHGDNIHVK [T39N]	1.06
TTVKLGDIKVTFDNPEKAKKYAQKLAKIYQLTVHVHGDPIHVK [T39P]	0.457
TTVKLGDIKVTFDNPEKAKKYAQKLAKIYQLTVHVHGDTIHAK [V42A]	0.602
